According to patent publication US10261099B2, “Cancer marker and therapeutic target” (Cancer Research Technology Ltd., priority 2007, dated 2019):
Entries after “also recorded” stand apart in the source; their conditions may differ.

Key:
[1] = tested on: CCR4 positive and negative cells; assay: CCR4 expression of CCR4 positive and negative cells exposed to cytokines; assay type: cell-based; details: cytokines of the cervical microenvironment
Text: CCR4 positive and negative cells were exposed to a number of cytokines (TNF-α, TGF-β, IFN-γ, IL-4 and IL-10) known to be present in the cervical microenvironment and for which receptors were likely to be present on the tumour cells.

[2] = tested on: C41 cervical cancer cell line; assay: CCR4 expression on C41 cells after cytokine stimulation (FACS); assay type: cell-based, human; details: 20 ng/ml, 24 h, versus unstimulated cells
Method: Dashed line: isotype control; grey line CCR4 expression; bold line; CCR4 expression after cytokine stimulation.
The most common cytokines present in a tumour are IL-10, TGF-β, FGF, TNF-α. The C41 cervical cancer cell line was stimulated in culture with different cytokines (IL-10, TNF-α, TGF-β, FGF; 20 ng/ml) for 24 h. The expression of CCR4 was then determined by FACS analysis.

[3] = tested on: C-41 cervical cancer cell line; assay: trans-well migration assay of C-41 cells towards CCR4 ligands; assay type: cell-based, human; details: for chemotactic response of C-41 cells: trans-well migration assay
Method: (§1) The cervical cancer cell line C-41 (ATCC, Rockville, Md, USA) was cultured in DMEM medium supplemented with 10% FCS. […] Proliferation and migration were assessed using methods described previously.
To investigate the biological significance of CCR4 expression on cervical cancer cells a number of cervical cancer cell lines (CaSki, Me180, Hela-Ohio, Hela-S3, Siha, C33A, C41-1) were screened for CCR4 expression. The cell line C-41 expressed cell surface CCR4 in a constitutive manner (FIG. 6A). Using FACS analysis it was shown that C-41 cells expressed cell surface CCR4. […] Following stimulation with 100 ng/ml CCL22, cell surface CCR4 protein was internalized on C-41 cells after 2 hours and returned back to the surface after 3 hours (FIG. 6B).

[4] = tested on: C-41 cervical cancer cell line; assay: C-41 growth/proliferation under suboptimal conditions after ligand stimulation; assay type: cell-based, human; details: 6 days
[5] = molecular target: T1, CCR4 (Homo sapiens, UniProt P51679); assay: CCR4 expression/internalization on C-41 cells after ligand stimulation (FACS); assay type: cell-based; details: stimulation with 100 ng/ml ligand
T1 construct: The cell line C-41 expressed cell surface CCR4 in a constitutive manner; host or cells: C-41 cervical cancer cell line
T1 sequence (P51679 1-360): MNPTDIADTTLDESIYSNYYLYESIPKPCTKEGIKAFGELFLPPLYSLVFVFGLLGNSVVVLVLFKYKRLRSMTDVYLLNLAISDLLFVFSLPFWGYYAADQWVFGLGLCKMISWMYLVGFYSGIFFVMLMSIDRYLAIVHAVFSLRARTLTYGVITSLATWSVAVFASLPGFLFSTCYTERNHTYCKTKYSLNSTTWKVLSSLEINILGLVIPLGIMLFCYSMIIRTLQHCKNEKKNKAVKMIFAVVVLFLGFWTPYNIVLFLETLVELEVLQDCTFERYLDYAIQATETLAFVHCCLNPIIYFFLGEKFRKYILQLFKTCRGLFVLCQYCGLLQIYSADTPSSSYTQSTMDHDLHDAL
Method: Values are the mean±SD of 10 determinations,*P <0.05, **P<0.01.
as §1
To investigate the biological significance of CCR4 expression on cervical cancer cells a number of cervical cancer cell lines (CaSki, Me180, Hela-Ohio, Hela-S3, Siha, C33A, C41-1) were screened for CCR4 expression.

With TGF-β the “influence on CCR4 expression” value [1] was “None of these influenced CCR4 expression” and the “CCR4 expression on C41 cells after cytokine stimulation” value [2] was “upregulated in terms of percentage of positive cells”.

For TNF-α, the “influence on CCR4 expression” value [1] was “None of these influenced CCR4 expression”.

B1: CCL17: chemokine ligand of CCR4 (PeproTech) used to stimulate C-41 cells (protein, UniProt Q92583 24-94, looked up)
C-C motif chemokine 17: ARGTNVGRECCLEYFKGAIPLRKLKTWYQTSEDCSRDAIVFVTVQGRAICSDPNNKRVKNAVKYLQSLERS
B1 was tested, and the “migration of C-41 cells” value ([3]; 10 ng/ml) was “induced significant migration”, the “migration of C-41 cells” value ([3]; 100 ng/ml) was “induced significant migration” and the “migration of C-41 cells” value ([3]; 1000 ng/ml) was “induced significant migration”. For the same molecule, the “chemotactic response of C-41 cells” value [3] was “typical bell-shaped chemotactic response”, the “C-41 cell growth / proliferation” value ([4]; 1 ng/ml) was “not” and the “C-41 cell growth / proliferation” value ([4]; 10 ng/ml) was “significant growth increase; also recorded: increased proliferation”. The “C-41 cell growth / proliferation” value ([4]; 100 ng/ml) was “significant growth increase; also recorded: increased proliferation” and the “cell surface CCR4 returned back to the surface after” value [5] was 3 h.

B2: CCL22: chemokine ligand of CCR4 (PeproTech) used to stimulate C-41 cells (protein, UniProt O00626 25-93, looked up)
C-C motif chemokine 22: GPYGANMEDSVCCRDYVRYRLPLRVVKHFYWTSDSCPRPGVVLLTFRDKEICADPRVPWVKMILNKLSQ
With B2 the “chemotactic response of C-41 cells” value [3] was “typical bell-shaped chemotactic response”, the “C-41 cell growth / proliferation” value ([4]; 1 ng/ml) was “significant increased growth; also recorded: simulated C-41 cell growth” and the “C-41 cell growth / proliferation” value ([4]; 10 ng/ml) was “not”. The “C-41 cell growth / proliferation” value ([4]; 100 ng/ml) was “significant increased growth; also recorded: simulated C-41 cell growth”, the “cell surface CCR4 protein internalized on C-41 cells after” value [5] was 2 h and the “cell surface CCR4 returned back to the surface after” value [5] was 3 h.

B3: IFN-γ: cytokine known to be present in the cervical microenvironment (protein, UniProt P01579 24-161, looked up)
Interferon gamma: QDPYVKEAENLKKYFNAGHSDVADNGTLFLGILKNWKEESDRKIMQSQIVSFYFKLFKNFKDDQSIQKSVETIKEDMNVKFFNSNKKKRDDFEKLTNYSVTDLNVQRKAIHELIQVMAELSPAAKTGKRKRSQMLFRG
B3 was tested, and the “influence on CCR4 expression” value [1] was “None of these influenced CCR4 expression”.

B4: IL-10: cytokine commonly present in a tumour, used to stimulate C41 cells (protein, UniProt P22301 19-178, looked up)
Interleukin-10: SPGQGTQSENSCTHFPGNLPNMLRDLRDAFSRVKTFFQMKDQLDNLLLKESLLEDFKGYLGCQALSEMIQFYLEEVMPQAENQDPDIKAHVNSLGENLKTLRLRLRRCHRFLPCENKSKAVEQVKNAFNKLQEKGIYKAMSEFDIFINYIEAYMTMKIRN
For B4, the “influence on CCR4 expression” value [1] was “None of these influenced CCR4 expression” and the “CCR4 expression on C41 cells after cytokine stimulation” value [2] was “upregulated in terms of percentage of positive cells”.

B5: IL-4: cytokine known to be present in the cervical microenvironment (protein, UniProt P05112 25-153, looked up)
Interleukin-4: HKCDITLQEIIKTLNSLTEQKTLCTELTVTDIFAASKNTTEKETFCRAATVLRQFYSHHEKDTRCLGATAQQFHRHKQLIRFLKRLDRNLWGLAGLNSCPVKEANQSTLENFLERLKTIMREKYSKCSS
For B5, the “influence on CCR4 expression” value [1] was “None of these influenced CCR4 expression”.
